# Laboratory results as given in US20250122303A1, “TREATMENT AND PREVENTION OF CANCER USING HER3 ANTIGEN-BINDING MOLECULES” (Hummingbird Bioscience Pte. Ltd., priority 2021, published 2025).
# Assays:
# [1] = target: His-tagged human HER3 (human) (UniProt P21860); assay: BLI competition: His-tagged human HER3 on anti-Penta-HIS tips saturated with LJM-716 (400 nM), then MM-121 as competing antibody (300 nM); no unit in the table, the y axis of FIG. 14A is Shift (nm)
# [2] = target: recombinant biotinylated human HER3 protein (human) (UniProt P21860); assay: plate ELISA dimerisation assay; human EGFR-His coated, constant HER3-biotin and NRG, antibody varied; blocked partner EGFR-His
# FcgRIIA (R167) (human) = FcgRIIA (R167) (human) (UniProt P12318); assay: Bio-Layer Interferometry (determined as described in Example 7)
# Chain of FcgRIIA (R167) (human) (P12318 36-218 H167R limits assumed): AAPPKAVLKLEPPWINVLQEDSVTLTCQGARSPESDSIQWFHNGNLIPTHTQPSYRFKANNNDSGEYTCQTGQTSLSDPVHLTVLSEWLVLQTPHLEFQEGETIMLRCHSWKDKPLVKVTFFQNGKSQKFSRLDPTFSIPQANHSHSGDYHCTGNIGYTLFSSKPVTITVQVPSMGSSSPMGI
# FcgRIIB (human) = FcgRIIB (human) (UniProt P31994); assay: as above
# Chain of FcgRIIB (human) (P31994 46-217 limits assumed): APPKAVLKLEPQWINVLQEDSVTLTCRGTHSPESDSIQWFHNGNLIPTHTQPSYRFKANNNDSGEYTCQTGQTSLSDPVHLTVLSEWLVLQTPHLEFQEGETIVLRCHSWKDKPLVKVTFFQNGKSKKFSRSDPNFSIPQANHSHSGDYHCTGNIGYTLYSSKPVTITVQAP
# moFcRn (mouse) = moFcRn (mouse) (UniProt Q61559); assay: as above
# [3] = target: His-tagged FcγRIIIa (V158) (human) (UniProt P08637); assay: as above
# FcRn (human) = FcRn (human) (UniProt P55899); assay: as above
# FcgRIIA (H167) (human) = FcgRIIA (H167) (human) (UniProt P12318); assay: as above
# Chain of FcgRIIA (H167) (human) (P12318 36-218 limits assumed): as the sequence (P12318 36-218 H167R limits assumed) above, with R132H counted along it
# [4] = target: human HER3:human NRG1 complex (human) (UniProt P21860); assay: BLI (Octet QK384), antibody captured on AHC sensors, HER3-NRG1 complex (1:1 molar ratio) in solution
response of the competing antibody (competition table) [1],IC50 [2] [µM],Kd (FcgRIIA (R167) (human)) [µM],Kd (FcgRIIB (human)) [µM],Kd (moFcRn (mouse)) [µM],Kd [3] [µM],Kd (FcRn (human)) [µM],Kd (FcgRIIA (H167) (human)) [µM],Kd [4] [µM],koff [4] [s⁻¹],kon [4] [M⁻¹ s⁻¹],Binder
0.693,0.0542,0.243,1.44,0.00669,7.05,0.0115,0.222,0.00192,0.000231,120000,"MM-121 (antibody, INN chains, looked up, human IgG2) heavy: EVQLLESGGGLVQPGGSLRLSCAASGFTFSHYVMAWVRQAPGKGLEWVSSISSSGGWTLYADSVKGRFTISRDNSKNTLYLQMNSLRAEDTAVYYCTRGLKMATIFDYWGQGTLVTVSSASTKGPSVFPLAPCSRSTSESTAALGCLVKDYFPEPVTVSWNSGALTSGVHTFPAVLQSSGLYSLSSVVTVPSSNFGTQTYTCNVDHKPSNTKVDKTVERKCCVECPPCPAPPVAGPSVFLFPPKPKDTLMISRTPEVTCVVVDVSHEDPEVQFNWYVDGVEVHNAKTKPREEQFNSTFRVVSVLTVVHQDWLNGKEYKCKVSNKGLPAPIEKTISKTKGQPREPQVYTLPPSREEMTKNQVSLTCLVKGFYPSDIAVEWESNGQPENNYKTTPPMLDSDGSFFLYSKLTVDKSRWQQGNVFSCSVMHEALHNHYTQKSLSLSPG light: QSALTQPASVSGSPGQSITISCTGTSSDVGSYNVVSWYQQHPGKAPKLIIYEVSQRPSGVSNRFSGSKSGNTASLTISGLQTEDEADYYCCSYAGSSIFVIFGGGTKVTVLGQPKAAPSVTLFPPSSEELQANKATLVCLVSDFYPGAVTVAWKADGSPVKVGVETTKPSKQSNNKYAASSYLSLTPEQWKSHRSYSCRVTHEGSTVEKTVAPAECS"
,,,,,,,,0.0168,,,"LJM716 (antibody, INN chains, looked up, human IgG1, V domains shown) VH: EVQLLESGGGLVQPGGSLRLSCAASGFTFSSYAMSWVRQAPGKGLEWVSAINSQGKSTYYADSVKGRFTISRDNSKNTLYLQMNSLRAEDTAVYYCARWGDEGFDIWGQGTLVTVSS VL: DIQMTQSPSSLSASVGDRVTITCRASQGISNWLAWYQQKPGKAPKLLIYGASSLQSGVPSRFSGSGSGTDFTLTISSLQPEDFATYYCQQYSSFPTTFGQGTKVEIK"
